From article PMC6386767, “Characterization of recombinant fructose-1,6-bisphosphatase gene mutations: evidence of inhibition/activation of FBPase protein by gene mutation” (Bioscience Reports, 2019)

Substrate: O=C(COP(=O)(O)O)[C@@H](O)[C@H](O)[C@H](O)COP(=O)(O)O
Assay: purified protein, by the assay type
Settings: apparent Km for substrate FBP, pH 7.5, 37.0 °C
[1] = other: enzyme M177A_2 (second clone)

B1: pig kidney FBPase L73A (Sus scrofa; L74A) (protein)
chain: MTDQAAFDTNIVTLTRFVMEEGRKARGTGEMTQLLNSLCTAVKAISTAVRKAGIAHLYGIAGSTNVTGDQVKKADVLSNDLVINVLKSSFATCVLVSEEDKNAIIVEPEKRGKYVVCFDPLDGSSNIDCLVSIGTIFGIYRKNSTDEPSEKDALQPGRNLVAAGYALYGSATMLVLAMVNGVNCFMLDPAIGEFILVDRDVKIKKKGSIYSINEGYAKEFDPAITEYIQRKKFPPDNSAPYGARYVGSMVADVHRTLVYGGIFMYPANKKSPKGKLRLLYECNPMAYVMEKAGGLATTGKEAVLDIVPTDIHQRAPIILGSPEDVTELLEIYQKHAAK
In the case of B1, the Km (other: enzyme L73A) is reported as 5.10 (± 0.3) µM, the Vmax (other: enzyme L73A) is reported as 50.5 µM/min and the kcat (other: enzyme L73A) is reported as 22.5 s⁻¹. The kcat/Km (other: enzyme L73A) was 4.41e+06 M⁻¹ s⁻¹.

B2: pig kidney FBPase L56A (Sus scrofa; L57A) (protein)
chain: MTDQAAFDTNIVTLTRFVMEEGRKARGTGEMTQLLNSLCTAVKAISTAVRKAGIAHAYGIAGSTNVTGDQVKKLDVLSNDLVINVLKSSFATCVLVSEEDKNAIIVEPEKRGKYVVCFDPLDGSSNIDCLVSIGTIFGIYRKNSTDEPSEKDALQPGRNLVAAGYALYGSATMLVLAMVNGVNCFMLDPAIGEFILVDRDVKIKKKGSIYSINEGYAKEFDPAITEYIQRKKFPPDNSAPYGARYVGSMVADVHRTLVYGGIFMYPANKKSPKGKLRLLYECNPMAYVMEKAGGLATTGKEAVLDIVPTDIHQRAPIILGSPEDVTELLEIYQKHAAK
For B2, the Km (other: enzyme L56A) was 5.20 (± 0.2) µM, the Vmax (other: enzyme L56A) was 52.3 µM/min and the kcat (other: enzyme L56A) was 25.6 s⁻¹. For the same protein, the kcat/Km (other: enzyme L56A) was 4.9e+06 M⁻¹ s⁻¹.

B3: pig kidney FBPase WT (Sus scrofa) (protein)
chain: MTDQAAFDTNIVTLTRFVMEEGRKARGTGEMTQLLNSLCTAVKAISTAVRKAGIAHLYGIAGSTNVTGDQVKKLDVLSNDLVINVLKSSFATCVLVSEEDKNAIIVEPEKRGKYVVCFDPLDGSSNIDCLVSIGTIFGIYRKNSTDEPSEKDALQPGRNLVAAGYALYGSATMLVLAMVNGVNCFMLDPAIGEFILVDRDVKIKKKGSIYSINEGYAKEFDPAITEYIQRKKFPPDNSAPYGARYVGSMVADVHRTLVYGGIFMYPANKKSPKGKLRLLYECNPMAYVMEKAGGLATTGKEAVLDIVPTDIHQRAPIILGSPEDVTELLEIYQKHAAK
With B3 the Km (other: enzyme WT) was 4.80 (± 0.5) µM, the Vmax (other: enzyme WT) was 41.8 µM/min and the kcat (other: enzyme WT) was 20.5 s⁻¹. For the same protein, the kcat/Km (other: enzyme WT) was 4.3e+06 M⁻¹ s⁻¹.

B4: pig kidney FBPase Y164A (Sus scrofa; Y165A) (protein)
chain: MTDQAAFDTNIVTLTRFVMEEGRKARGTGEMTQLLNSLCTAVKAISTAVRKAGIAHLYGIAGSTNVTGDQVKKLDVLSNDLVINVLKSSFATCVLVSEEDKNAIIVEPEKRGKYVVCFDPLDGSSNIDCLVSIGTIFGIYRKNSTDEPSEKDALQPGRNLVAAGAALYGSATMLVLAMVNGVNCFMLDPAIGEFILVDRDVKIKKKGSIYSINEGYAKEFDPAITEYIQRKKFPPDNSAPYGARYVGSMVADVHRTLVYGGIFMYPANKKSPKGKLRLLYECNPMAYVMEKAGGLATTGKEAVLDIVPTDIHQRAPIILGSPEDVTELLEIYQKHAAK
B4 was tested, and the Km (other: enzyme Y164A) was 5.30 (± 0.6) µM, the Vmax (other: enzyme Y164A) was 27.5 µM/min and the kcat (other: enzyme Y164A) was 13.5 s⁻¹. It also gave a kcat/Km (other: enzyme Y164A) of 2.6e+06 M⁻¹ s⁻¹.

B5: pig kidney FBPase Y113A (Sus scrofa; Y114A) (protein)
chain: MTDQAAFDTNIVTLTRFVMEEGRKARGTGEMTQLLNSLCTAVKAISTAVRKAGIAHLYGIAGSTNVTGDQVKKLDVLSNDLVINVLKSSFATCVLVSEEDKNAIIVEPEKRGKAVVCFDPLDGSSNIDCLVSIGTIFGIYRKNSTDEPSEKDALQPGRNLVAAGYALYGSATMLVLAMVNGVNCFMLDPAIGEFILVDRDVKIKKKGSIYSINEGYAKEFDPAITEYIQRKKFPPDNSAPYGARYVGSMVADVHRTLVYGGIFMYPANKKSPKGKLRLLYECNPMAYVMEKAGGLATTGKEAVLDIVPTDIHQRAPIILGSPEDVTELLEIYQKHAAK
For B5, the Km (other: enzyme Y113A) was 2.50 (± 0.3) µM, the Vmax (other: enzyme Y113A) was 55.5 µM/min and the kcat (other: enzyme Y113A) was 27.2 s⁻¹. The kcat/Km (other: enzyme Y113A) was 1.09e+07 M⁻¹ s⁻¹.

B6: pig kidney FBPase M177A (Sus scrofa; M178A) (protein)
chain: MTDQAAFDTNIVTLTRFVMEEGRKARGTGEMTQLLNSLCTAVKAISTAVRKAGIAHLYGIAGSTNVTGDQVKKLDVLSNDLVINVLKSSFATCVLVSEEDKNAIIVEPEKRGKYVVCFDPLDGSSNIDCLVSIGTIFGIYRKNSTDEPSEKDALQPGRNLVAAGYALYGSATMLVLAAVNGVNCFMLDPAIGEFILVDRDVKIKKKGSIYSINEGYAKEFDPAITEYIQRKKFPPDNSAPYGARYVGSMVADVHRTLVYGGIFMYPANKKSPKGKLRLLYECNPMAYVMEKAGGLATTGKEAVLDIVPTDIHQRAPIILGSPEDVTELLEIYQKHAAK
With B6 the Km (other: enzyme M177A_1) was 4.20 (± 0.6) µM, the Vmax (other: enzyme M177A_1) was 26.1 µM/min and the kcat (other: enzyme M177A_1) was 12.8 s⁻¹. The kcat/Km (other: enzyme M177A_1) was 3.1e+06 M⁻¹ s⁻¹, the Km [1] was 4.80 (± 0.5) µM and the Vmax [1] was 23.4 µM/min. It also gave a kcat [1] of 11.5 s⁻¹ and a kcat/Km [1] of 2.4e+06 M⁻¹ s⁻¹.

B7: pig kidney FBPase M248D (Sus scrofa; M249D) (protein)
chain: MTDQAAFDTNIVTLTRFVMEEGRKARGTGEMTQLLNSLCTAVKAISTAVRKAGIAHLYGIAGSTNVTGDQVKKLDVLSNDLVINVLKSSFATCVLVSEEDKNAIIVEPEKRGKYVVCFDPLDGSSNIDCLVSIGTIFGIYRKNSTDEPSEKDALQPGRNLVAAGYALYGSATMLVLAMVNGVNCFMLDPAIGEFILVDRDVKIKKKGSIYSINEGYAKEFDPAITEYIQRKKFPPDNSAPYGARYVGSDVADVHRTLVYGGIFMYPANKKSPKGKLRLLYECNPMAYVMEKAGGLATTGKEAVLDIVPTDIHQRAPIILGSPEDVTELLEIYQKHAAK
With B7 the Km (other: enzyme M248D) was 1.25 (± 0.4) µM, the Vmax (other: enzyme M248D) was 62.2 µM/min and the kcat (other: enzyme M248D) was 30.5 s⁻¹. For the same protein, the kcat/Km (other: enzyme M248D) was 2.44e+07 M⁻¹ s⁻¹.

B8: pig kidney FBPase K112A (Sus scrofa; K113A) (protein)
chain: MTDQAAFDTNIVTLTRFVMEEGRKARGTGEMTQLLNSLCTAVKAISTAVRKAGIAHLYGIAGSTNVTGDQVKKLDVLSNDLVINVLKSSFATCVLVSEEDKNAIIVEPEKRGAYVVCFDPLDGSSNIDCLVSIGTIFGIYRKNSTDEPSEKDALQPGRNLVAAGYALYGSATMLVLAMVNGVNCFMLDPAIGEFILVDRDVKIKKKGSIYSINEGYAKEFDPAITEYIQRKKFPPDNSAPYGARYVGSMVADVHRTLVYGGIFMYPANKKSPKGKLRLLYECNPMAYVMEKAGGLATTGKEAVLDIVPTDIHQRAPIILGSPEDVTELLEIYQKHAAK
B8 was tested, and the Km (other: enzyme K112A) was 3.25 (± 0.2) µM, the Vmax (other: enzyme K112A) was 54.7 µM/min and the kcat (other: enzyme K112A) was 26.8 s⁻¹. The kcat/Km (other: enzyme K112A) was 8.25e+06 M⁻¹ s⁻¹.
